# Source: US20110294137A1 (MEDICAL RESEARCH COUNCIL, published 2011)
# T1: Rv1827, P9WJA9
# T1 chain: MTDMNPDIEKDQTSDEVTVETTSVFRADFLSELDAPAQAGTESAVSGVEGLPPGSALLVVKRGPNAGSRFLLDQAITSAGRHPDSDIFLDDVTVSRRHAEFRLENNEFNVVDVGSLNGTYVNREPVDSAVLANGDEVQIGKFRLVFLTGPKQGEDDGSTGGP
# B1: wild-type ParM (other)
# chain: MLVFIDDGSTNIKLQWQESDGTIKQHISPNSFKREWAVSFGDKKVFNYTLNGEQYSFDPISPDAVVTTNIAWQYSDVNVVAVHHALLTSGLPVSEVDIVCTLPLTEYYDRNNQPNTENIERKKANFRKKITLNGGDTFTIKDVKVMPESIPAGYEVLQELDELDSLLIIDLGGTTLDISQVMGKLSGISKIYGDSSLGVSLVTSAVKDALSLARTKGSSYLADDIIIHRKDNNYLKQRINDENKISIVTEAMNEALRKLEQRVLNTLNEFSGYTHVMVIGGGAELICDAVKKHTQIRDERFFKTNNSQYDLVNGMYLIGN
# notes: Unlabelled, without His6 tag (plasmid pJSC1); also called ParM wild-type
# B2: PknB kinase domain (PknB 1-279) (protein)
# chain: MTTPSHLSDRYELGEILGFGGMSEVHLARDLRLHRDVAVKVLRADLARDPSFYLRFRREAQNAAALNHPAIVAVYDTGEAETPAGPLPYIVMEYVDGVTLRDIVHTEGPMTPKRAIEVIADACQALNFSHQNGIIHRDVKPANIMISATNAVKVMDFGIARAIADSGNSVTQTAAVIGTAQYLSPEQARGDSVDARSDVYSLGCVLYEVLTGEPPFTGDSPVSVAYQHVREDPIPPSARHEGLSADLDAVVLKALAKNPENRYQTAAEMRADLVRVHNG
# Columns and labels:
# [1] = target: the molecule itself; experiment: right angle light scattering at 340 nm, self-polymerisation, 4 mM ATP
# Rv1827, P9WJA9 = target: T1, Rv1827, P9WJA9
protein,measurement,setting,value
B1,"critical concentration (filament formation, in presence of ATP)",[1],2.5 µM
B2,KM,"Rv1827, P9WJA9","KM, 20 µM"
same,"KM value (Michaelis-Menten, initial rate against Rv1827 concentration)","Rv1827, P9WJA9",a KM value of 22 µM
same,kcat,"Rv1827, P9WJA9",kcat 4.7 min^-1
same,"kcat (300 µM Rv1827, ATP varied)","Rv1827, P9WJA9","kcat, 4.9 min^-1"
same,maximal rate,"Rv1827, P9WJA9",a maximal rate of 1.2 µM min^-1
same,specific activity,"Rv1827, P9WJA9",the specific activity of the PknB kinase domain was calculated for 40 µM ATP as 5.9 s^-1
